Measurements taken from patent publication US20230287060, “PROTEINS AND THEIR USE FOR NUCLEOTIDE BINDING” (The University of Western Australia, published 2023).

Target: T1, cPPR-Telo1 (synthetic construct)
T1 chain: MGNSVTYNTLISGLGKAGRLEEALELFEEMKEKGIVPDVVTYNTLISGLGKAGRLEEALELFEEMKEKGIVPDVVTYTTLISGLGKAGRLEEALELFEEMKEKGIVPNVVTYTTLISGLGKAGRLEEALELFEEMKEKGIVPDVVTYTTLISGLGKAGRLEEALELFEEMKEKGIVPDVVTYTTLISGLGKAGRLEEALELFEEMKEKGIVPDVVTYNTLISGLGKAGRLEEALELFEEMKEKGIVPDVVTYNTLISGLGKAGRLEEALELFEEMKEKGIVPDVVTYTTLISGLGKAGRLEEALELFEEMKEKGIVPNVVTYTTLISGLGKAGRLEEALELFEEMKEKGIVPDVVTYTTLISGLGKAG
Experiment: structure; co-crystal structure 2.0 A, PDB 5ORQ; protein/DNA 1:2; 100 mM sodium acetate pH 4.6, 20 mM CaCl2, 22% MPD
Details: tags: GST and His tags (pETM30, E. coli)
Procedure: Crystals of cPPR-Telo1 were grown at 23° C. by the sitting drop vapour diffusion method by mixing 1 μl protein (5 mg/ml) with an equal volume of reservoir solution (100 mM sodium acetate pH 4.6, 20 mM calcium chloride, and 40% MPD). In addition, cPPR-Telo1 was incubated with target ssDNA oligonucleotide (TTAGGGTTAG) at a protein/DNA molar ratio of 1:2 for 30 min at 4° C. and crystallized in 100 mM sodium acetate pH 4.6, 20 mM calcium chloride, and 22% MPD. For both cPPR-Telo1 and cPPR-Telo1/ssDNA a single-wavelength anomalous dispersion dataset was collected at the K-edge of selenium at beam line ID30A-3 (ESRF, Grenoble, France). […] Acta Crystallogr D Biol Crystallogr 66, 213-21 (2010) was used as a starting model for manual building in COOT (Emsley, P. & Cowtan, K. Coot: model-building tools for molecular graphics. Acta Crystallogr D Biol Crystallogr 60, 2126-32 (2004) interspersed with refinement in Buster (version 2.10.3) (Smart, O. S. et al. Exploiting structure similarity in refinement: automated NCS and target-structure restraints in BUSTER. Acta Crystallogr D Biol Crystallogr 68, 368-80 (2012), which rendered a final model (Table 1) that had no Ramachandran outliers as assessed by MOLPROBITY (Lovell, S. C. et al. Structure validation by Calpha geometry: phi,psi and Cbeta deviation. […]

## TTAGGGTTAG (ssDNA) [telomeric ssDNA target 10-mer]
  binding result: binds
